Experimental data: PMC11773488

Tests used:
[1] = target: N-terminal FLAG-tagged human formyl-peptide receptor 2 fused C-terminally to Renilla luciferase (FPR2-Rluc8) (human) (UniProt P25090); test: FRET or BRET; BRET as a1, in ΔQ-GRK cells co-transfected with GRK2; WKYMVm 10 min
[2] = target: N-terminal FLAG-tagged human formyl-peptide receptor 2 fused C-terminally to Renilla luciferase (FPR2-Rluc8) (human) (UniProt P25090); test: FRET or BRET; BRET as a1, in ΔQ-GRK cells co-transfected with GRK3; WKYMVm 10 min
[3] = target: N-terminal FLAG-tagged human formyl-peptide receptor 2 fused C-terminally to Renilla luciferase (FPR2-Rluc8) (human) (UniProt P25090); test: FRET or BRET; BRET as a1, in ΔQ-GRK cells co-transfected with GRK5; WKYMVm 10 min
[4] = target: N-terminal FLAG-tagged human formyl-peptide receptor 2 fused C-terminally to Renilla luciferase (FPR2-Rluc8) (human) (UniProt P25090); test: FRET or BRET; BRET as a1, in ΔQ-GRK cells co-transfected with GRK6; WKYMVm 10 min
[5] = target: N-terminal FLAG-tagged human formyl-peptide receptor 2 fused C-terminally to Renilla luciferase (FPR2-Rluc8) (human) (UniProt P25090); test: FRET or BRET; BRET as a1, in CRISPR-Cas9-edited HEK293 cells without GRK2/3 (ΔGRK2/3); WKYMVm 10 min
[6] = target: N-terminal FLAG-tagged human formyl-peptide receptor 2 fused C-terminally to Renilla luciferase (FPR2-Rluc8) (human) (UniProt P25090); test: FRET or BRET; BRET as a1, in CRISPR-Cas9-edited HEK293 cells without GRK5/6 (ΔGRK5/6); WKYMVm 10 min
[7] = target: N-terminal FLAG-tagged human formyl-peptide receptor 2 fused C-terminally to Renilla luciferase (FPR2-Rluc8) (human) (UniProt P25090); test: FRET or BRET; BRET as a1, FPR2-RLuc8 with Venus-β-arrestin in Control cells of the GRK-edited HEK293 panel; WKYMVm 10 min
[8] = target: FPR2 ΔAB-RLuc8 (human) (UniProt P25090); test: FRET or BRET; BRET in live HEK293 cells co-transfected with receptor-RLuc8 (donor, 400 ng) and Venus-tagged mGsi, β-arrestin 1 or β-arrestin 2 (acceptor), 4:1 acceptor:donor; 37°C, Hank's balanced salt solution, 5 μM coelenterazine H; increasing WKYMVm, read 10 min after agonist; ratio acceptor:donor minus untreated; Emax by nonlinear regression; pertussis toxin pretreatment had no effect on β-arrestin recruitment
[9] = target: FPR2 ΔABC with S326 reintroduced, RLuc8 fusion (human) (UniProt P25090); test: as above
[10] = target: FPR2 ΔABC with S328 (printed once as S329) reintroduced, RLuc8 fusion (human) (UniProt P25090); test: as above
[11] = target: FPR2 ΔABC with T331 reintroduced, RLuc8 fusion (human) (UniProt P25090); test: as above
[12] = target: FPR2 ΔABC-RLuc8 (all C-terminal serine and threonine residues mutated to alanine) (human) (UniProt P25090); test: as above
[13] = target: FPR2 ΔAC-RLuc8 (human) (UniProt P25090); test: as above
[14] = target: FPR2 ΔBC-RLuc8 (human) (UniProt P25090); test: as above
[15] = target: N-terminal FLAG-tagged human formyl-peptide receptor 2 fused C-terminally to Renilla luciferase (FPR2-Rluc8) (human) (UniProt P25090); test: as above
[16] = target: FPR2 S326A-RLuc8 (human) (UniProt P25090); test: as above
[17] = target: FPR2 S328A-RLuc8 (human) (UniProt P25090); test: as above
[18] = target: FPR2 T331A-RLuc8 (human) (UniProt P25090); test: as above
[19] = target: N-terminal FLAG-tagged human formyl-peptide receptor 2 fused C-terminally to Renilla luciferase (FPR2-Rluc8) (human) (UniProt P25090); test: as above; remark: listed apart in the source
[20] = target: Venus-tagged mini-Gsi (mGsi); test: BRET; settings: HEK293 cells; WKYMVm at x = -5 (highest concentration), 10 min; parent: est. 0.076; read off a plot
[21] = target: β-arrestin 2 fused to Venus fluorescent protein (UniProt P32121); test: BRET; settings: HEK293 cells; WKYMVm at x = -5 (highest concentration), 10 min; parent: est. 0.064; read off a plot

| Emax (BRET) (normalized acceptor:donor ratio) [1] | Emax (BRET) (normalized acceptor:donor ratio) [2] | Emax (BRET) (normalized acceptor:donor ratio) [3] | Emax (BRET) (normalized acceptor:donor ratio) [4] | Emax (BRET) (normalized acceptor:donor ratio) [5] | Emax (BRET) (normalized acceptor:donor ratio) [6] | Emax (BRET) (normalized acceptor:donor ratio) [7] | Substance | Emax (BRET) (normalized acceptor:donor ratio) [8] | Emax (BRET) (normalized acceptor:donor ratio) [9] | Emax (BRET) (normalized acceptor:donor ratio) [10] | Emax (BRET) (normalized acceptor:donor ratio) [11] | Emax (BRET) (normalized acceptor:donor ratio) [12] | Emax (BRET) (normalized acceptor:donor ratio) [13] | Emax (BRET) (normalized acceptor:donor ratio) [14] | Emax (BRET) (normalized acceptor:donor ratio) [15] | Emax (BRET) (normalized acceptor:donor ratio) [16] | Emax (BRET) (normalized acceptor:donor ratio) [17] | Emax (BRET) (normalized acceptor:donor ratio) [18] | Emax (BRET) (normalized acceptor:donor ratio) [19] | further results |
| --- | --- | --- | --- | --- | --- | --- | --- | --- | --- | --- | --- | --- | --- | --- | --- | --- | --- | --- | --- | --- |
| 0.0987 | 0.0949 | 0.0971 | 0.0583 | 0.0807 | 0.0541 | 0.098 | β-arrestin 2 fused to Venus fluorescent protein (from UniProt P32121 1-409) (natural protein) | 0.0396 | 0.0217 | 0.0111 | 0.0194 | 0.0146 | 0.0691 | 0.0015 | 0.0715 | 0.0605 | 0.0608 | 0.0611 | 0.0854 |  |
|  |  |  |  |  |  |  | N-terminal FLAG-tagged human formyl-peptide receptor 2 fused C-terminally to Renilla luciferase (FPR2-Rluc8) (from UniProt P25090) DAC (… to …; R to A of the DRC motif) |  |  |  |  |  |  |  |  |  |  |  |  | response [20]: 0 N-BRET; response [21]: 0.033 N-BRET |
| 0.0822 | 0.0855 | 0.0884 | 0.0557 | 0.0708 | 0.0299 | 0.0931 | β-arrestin 1 fused to Venus fluorescent protein (from UniProt P49407 1-418) (natural protein) | 0.0359 | 0.00242 | -0.00162 | -0.000883 | 0.00138 | 0.0638 | 0.000955 | 0.0782 | 0.0623 | 0.0481 | 0.0667 | 0.0821 |  |
